Results published in PMC4457943.
Like-named read-outs stand apart in the source and are kept apart here.

B1: interleukin-9 receptor α-subunit (IL-9Rα), stably transfected in Kit225/IL-9R cells (receptor)
chain: SVTGEGQGPRSRTFTCLTNNILRIDCHWSAPELGQGSSPWLLFTSNQAPGGTHKCILRGSECTVVLPPEAVLVPSDNFTITFHHCMSGREQVSLVDPEYLPRRHVKLDPPSDLQSNISSGHCILTWSISPALEPMTTLLSYELAFKKQEEAWEQAQHRDHIVGVTWLILEAFELDPGFIHEARLRVQMATLEDDVVEEERYTGQWSEWSQPVCFQAPQRQGPLIPPWGWPGNTLVAVSIFLLLTGPTYLLFKLSPRVKRIFYQNVPSPAMFFQPLYSVHNGNFQTWMGAHGAGVLLSQDCAGTPQGALEPCVQEATALLTCGPARPWKSVALEEEQEGPGTRLPGNLSSEDVLPAGCTEWRVQTLAYLPQEDWAPTSLTRPAPPDSEGSRSSSSSSSSNNNNYCALGCYGGWHLSALPGNTQSSGPIPALACGLSCDHQGLETQQGVAWVLAGHCQRPGLHEDLQGMLLPSVLSKARSWTF
B2: interleukin-9 receptor α-subunit (IL-9Rα), endogenous in MT-2 cells (receptor)
chain: B1 chain

Columns and labels:
Assay in all cases: FRET or BRET
[1] = target: MHC class II glycoprotein (HLA-DR) (human (endogenous in Kit225/IL-9R and MT-2))
[2] = target: MHC class I heavy chain (human (endogenous in Kit225/IL-9R and MT-2)) (UniProt P04439)
[3] = target: MHC class II glycoprotein (HLA-DR) (human (endogenous in Kit225/IL-9R and MT-2)); remark: listed apart in the source
[4] = target: MHC class I heavy chain (human (endogenous in Kit225/IL-9R and MT-2)) (UniProt P04439); remark: listed apart in the source

FRET efficiency E (%) [1] [%]	FRET efficiency E (%) [2] [%]	FRET efficiency E (%) [3] [%]	FRET efficiency E (%) [4] [%]	Molecule
21.9	21.7	11.9	22.5	IL-2 receptor α chain (IL-2Rα) (from UniProt P01589 22-272)
15.9	17.2	–	–	B1
10.2	13.5	–	–	B2
